Our source for the reverse-splicing fitness values is the RNAGym collection of RNA variant scans (doi:10.1093/molbev/msab373).

The chains are these.
B1: Azoarcus group I ribozyme (parent)
chain: GUGCCUUGCGCCGGGAAACCACGCAAGGGAUGGUGUCAAAUUCGGCGAAACCUAAGCGCCCGCCCGGGCGUAUGGCAACGCCGAGCCAAGCUUCGGCGCCUGCGCCGAUGAAGGUGUAGAGACUAGACGGCACCCACCUAAGGCAAACGCUAUGGUGAAGGCAUAGUCCAGGGAGUGGCGAAAGUCACACAAACCGG

This data set covers variants of B1. Put plainly: reverse-splicing fitness (ratio to wild type); higher = more active; in vitro selection; Mg2+ level not given. In short, it runs like this:
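An in vitro group I ribozyme library with randomized positions was T7-transcribed and gel-purified. In triplicate, 10 pmol RNA in EPPS pH 7.5 was reacted with 50 pmoles of a 30-nt RNA substrate for 1 h at 37 °C across several added MgCl2 levels (1–48 mM), then stopped with EDTA. Products were reverse transcribed from a substrate-complementary primer, PCR-amplified and sequenced (HiSeq 4000). Fitness is a variant's read proportion after selection over that before, normalised to wild type.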
As to C82U A145C C150A C169U U176G, the reverse-splicing fitness amounted to 0.00503.

For the variant A111C A120C A145U C150A C169U, the reverse-splicing fitness came out at 0.024.

For C82A A111G A120U C150A C169A U176C, the reverse-splicing fitness was found to be 0.00319.

As for C82A A111U A120G A145U U176G, the reverse-splicing fitness came to 0.00522.

Consider C82U A111G A145G C169A U176G, for which the reverse-splicing fitness worked out at 0.00491.

For the variant C82A A111C A120U A145C C150A U176G, the reverse-splicing fitness worked out at 0.00289.

Take A111U A120U A145C C169G U176A: the reverse-splicing fitness stood at 0.00441.

With A111G A120U A145G C150U C169A U176A, the reverse-splicing fitness came out at 0.00469.

As for C82U A111U A120C C150G C169A U176G, the reverse-splicing fitness is 0.00603.

Take C82G A111G A145C C150G C169A U176A: the reverse-splicing fitness stood at 0.00983.

As for C82G A111G A120G A145U U176A, the reverse-splicing fitness amounted to 0.0167.

On to C82A A111U A120C A145G C150A U176C, for which the reverse-splicing fitness came out at 0.0241.

As for C82U A120C C150U U176A, the reverse-splicing fitness worked out at 0.0291.

Take C82U A145U C150G: the reverse-splicing fitness came out at 0.0715.

With A111C A120G A145G C150A C169A U176G, the reverse-splicing fitness came out at 0.0058.

As for C82A A111C A120G C169A U176G, the reverse-splicing fitness turned out to be 0.00465.

As to C82G A111C C169G U176G, the reverse-splicing fitness came out at 0.00724.

For the variant C82G A111G A120C A145C C169A U176C, the reverse-splicing fitness was determined as 0.0106.

As to C82A A111C A145G C150G C169U U176C, the reverse-splicing fitness worked out at 0.0116.

On to C82A A111G C169G, for which the reverse-splicing fitness worked out at 0.00926.

C82U A111G A120C A145U C169G U176A: the reverse-splicing fitness came to 0.00935.

As to C82U A111C A120U A145C C150A C169A, the reverse-splicing fitness is 0.00255.

On to A111C A120G A145G C150A C169G U176G, for which the reverse-splicing fitness was 0.00523.

For the variant A111C A120G A145G C150A C169G U176A, the reverse-splicing fitness worked out at 0.0195.

C82U A145G C169G U176C: the reverse-splicing fitness was 0.0258.

A120G C169A: the reverse-splicing fitness amounted to 0.444.

As for A111G A120G C169A, the reverse-splicing fitness was 0.165.

Consider C82A A120C A145G C169U U176A, for which the reverse-splicing fitness is 0.0173.

As for A111C A120C A145C C169G U176G, the reverse-splicing fitness came out at 0.00634.

For the variant A120U A145G C150U C169U U176G, the reverse-splicing fitness is 0.00649.

In the case of C82A A111G A120U A145G C169G, the reverse-splicing fitness was 0.00402.

Regarding A111C A120G C169A U176C, the reverse-splicing fitness is 0.0306.

Turning to A111U C150U C169U, the reverse-splicing fitness came to 0.0631.

Turning to C82G A120C A145G U176C, the reverse-splicing fitness came out at 0.103.

Consider A111G A145C C150U C169U U176C, for which the reverse-splicing fitness is 0.0247.

For C82G A111G A145G C150G C169G U176A, the reverse-splicing fitness was found to be 0.011.

Take C82U A120U A145C C169U U176A: the reverse-splicing fitness came out at 0.00253.

For C82U A120U A145G C150U C169A U176G, the reverse-splicing fitness turned out to be 0.0022.

Regarding A120G A145C C150A C169G U176G, the reverse-splicing fitness amounted to 0.00572.

For C82U A111C A120U C150G U176A, the reverse-splicing fitness came to 0.0035.

Consider A111C A120G C150G C169U U176A, for which the reverse-splicing fitness came out at 0.00966.

As for A111G A120U A145U C169G, the reverse-splicing fitness turned out to be 0.0912.

On to C82A A111U A120U A145C C150A C169G U176A, for which the reverse-splicing fitness turned out to be 0.00303.

As for C82G A111C A120C A145U C150G C169U, the reverse-splicing fitness was 0.00897.

C82U A145C C150G C169A U176C: the reverse-splicing fitness came to 0.00546.

Regarding C82G A111U A120G A145C, the reverse-splicing fitness worked out at 0.0134.

Turning to C82G A111C A120G C150U C169G U176A, the reverse-splicing fitness is 0.0141.

On to C82U A111U A145U C150G U176C, for which the reverse-splicing fitness worked out at 0.019.

C82U A111G A120G C150U U176C: the reverse-splicing fitness came out at 0.0156.

Take C82A A111G C150A C169A U176C: the reverse-splicing fitness was determined as 0.0218.

For the variant A111C A145U C150U C169A, the reverse-splicing fitness amounted to 0.0212.

For C82A A111G A120G A145U C150U U176A, the reverse-splicing fitness turned out to be 0.00996.

As to C82A A111C A145G C150A C169U U176G, the reverse-splicing fitness was determined as 0.00882.

As to C82G A111C A120C A145C C150A C169A, the reverse-splicing fitness was found to be 0.00796.

Consider C82U A120G A145C C150A C169U U176C, for which the reverse-splicing fitness is 0.00972.

Regarding C82G A111G A120U C150U C169G U176G, the reverse-splicing fitness was found to be 0.0024.

In the case of A111U A120C A145C C150U U176G, the reverse-splicing fitness came out at 0.019.

In the case of C82G A120U A145G C150A C169A U176C, the reverse-splicing fitness amounted to 0.00287.

With C82G A111U A120C A145U C150G C169G U176G, the reverse-splicing fitness stood at 0.00592.

Take A120G C150A C169U: the reverse-splicing fitness was determined as 0.071.

Regarding C82A A111U A120G A145C C169A, the reverse-splicing fitness was 0.0074.

For C82G A120C C169G U176G, the reverse-splicing fitness came to 0.00385.

Take C82G A111G C169U: the reverse-splicing fitness is 0.0143.

Take C82A A111U A145C C169U U176C: the reverse-splicing fitness was determined as 0.0102.

In the case of A111U A120G A145C C150G C169U U176C, the reverse-splicing fitness was determined as 0.0146.

For C82U A111U A120G A145U C169U U176A, the reverse-splicing fitness stood at 0.0203.

Consider A120U A145C U176G, for which the reverse-splicing fitness was 0.36.

On to C82A A111C A145U C150G C169A U176C, for which the reverse-splicing fitness stood at 0.0117.

As for C82U A111G A120U A145C C150A C169G, the reverse-splicing fitness came out at 0.00197.

Regarding C82G A111U A120U A145U C150G C169G, the reverse-splicing fitness is 0.00336.

For C82G A111U A120U A145U C150G C169U, the reverse-splicing fitness turned out to be 0.0032.

With A120U A145C C150U C169U U176C, the reverse-splicing fitness was found to be 0.0258.

In the case of C82A A111C A120G C169A, the reverse-splicing fitness was 0.0095.

Take C82G A111C A120C C150A C169U: the reverse-splicing fitness came out at 0.0123.

Consider A111G A120C A145G C169U, for which the reverse-splicing fitness is 0.254.

As for C82U A120G A145U C150A C169A U176C, the reverse-splicing fitness was 0.00898.

Take C82A A120G A145C C169A: the reverse-splicing fitness is 0.0124.

Consider C82G A111C A120C A145U C150A C169A U176G, for which the reverse-splicing fitness came out at 0.00868.

Consider A111C A120U A145G C169G U176A, for which the reverse-splicing fitness was found to be 0.0064.

In the case of A111G A120C A145G C150A U176A, the reverse-splicing fitness worked out at 0.0804.

On to C82U A111G A120G C150U C169A, for which the reverse-splicing fitness turned out to be 0.0105.

On to A111G A120U A145G C150G C169U, for which the reverse-splicing fitness is 0.0149.

With A111C A120G A145U C150U C169A U176C, the reverse-splicing fitness amounted to 0.0175.

With C82U A111C A120C A145G C169G U176A, the reverse-splicing fitness is 0.0195.
